Where only a bound is given, the exact number is not on record here.

In experiment [1] the target is HLA-B*07:02. Briefly: IEDB peptide-MHC binding, purified MHC/competitive/radioactivity; filed as Kd, often an IC50 or EC50 that approximates it; ≥ and ≤ were set here for values at or beyond the usual limits of such assays.
The next experiment addresses HLA-B*51:01. The experiment is described as above.
The target of a further experiment is HLA-B*54:01. Described as above.
The target of a further experiment is HLA-B*53:01. The description is as above.
The next experiment concerns the target HLA-B*35:01. The experiment is described as above.
Another experiment has as its target HLA-A*24:03. Briefly: IEDB peptide-MHC binding, purified MHC/direct/fluorescence; filed as Kd, often an IC50 or EC50 that approximates it; ≥ and ≤ were set here for values at or beyond the usual limits of such assays.
Experiment [2] deals with HLA-B*18:01. Described as above.
For experiment [3], the target named is HLA-B*40:01. Described as above.
The next experiment deals with HLA-B*45:06. Briefly: IEDB peptide-MHC binding, purified MHC/competitive/fluorescence; filed as Kd, often an IC50 or EC50 that approximates it; ≥ and ≤ were set here for values at or beyond the usual limits of such assays.
Another experiment has as its target HLA-B*83:01. The description is as above.
The next experiment has as its target HLA-B*15:42. The description is as above.
The target in the next experiment is HLA-B*46:01. The description is as above. To be noted: source organism: Shigella flexneri 5 str. 8401.
The target of experiment [4] is HLA-B*44:02. The experiment in a line: IEDB peptide-MHC binding, purified MHC/direct/fluorescence; filed as Kd, often an IC50 or EC50 that approximates it; ≥ and ≤ were set here for values at or beyond the usual limits of such assays.
Experiment [5] concerns the target HLA-B*07:02. The description is as above. To be noted: source organism: Campylobacter jejuni RM1221.
The next experiment concerns the target HLA-A*11:01. The description is as above. To be noted: source organism: Campylobacter jejuni RM1221.
The target in the next experiment is HLA-A*69:01. The description is as above. To be noted: source organism: Campylobacter jejuni RM1221.
A further experiment has as its target HLA-A*02:01. The experiment is described as above. To be noted: source organism: Campylobacter jejuni RM1221.
A further experiment has as its target HLA-A*03:01. Described as above. To be noted: source organism: Campylobacter jejuni RM1221.
A further experiment concerns the target HLA-A*01:01. Described as above. To be noted: source organism: Campylobacter jejuni.
Experiment [6] concerns the target HLA-B*08:01. The experiment is described as above. To be noted: source organism: Campylobacter jejuni RM1221.
For the next experiment, the target named is HLA-B*58:01. The description is as above. To be noted: source organism: Campylobacter jejuni RM1221.
The target in a further experiment is HLA-B*15:01. Described as above. To be noted: source organism: Campylobacter jejuni RM1221.
The target in a further experiment is HLA-A*26:01. The experiment is described as above. To be noted: source organism: Campylobacter jejuni RM1221.
Another experiment concerns the target HLA-B*27:05. The experiment is described as above. To be noted: source organism: Campylobacter jejuni RM1221.
A further experiment concerns the target HLA-A*31:01. The experiment is described as above. To be noted: source organism: Campylobacter jejuni RM1221.
Experiment [7] concerns the target HLA-B*44:02. The experiment in a line: IEDB peptide-MHC binding, purified MHC/competitive/radioactivity; filed as Kd, often an IC50 or EC50 that approximates it; ≥ and ≤ were set here for values at or beyond the usual limits of such assays.
Experiment [8] addresses HLA-B*18:01. The description is as above.
Experiment [9] addresses HLA-B*40:01. The description is as above.
For the next experiment, the target named is HLA-B*44:03. The description is as above.
The next experiment concerns the target HLA-B*40:02. Described as above.
The target of another experiment is HLA-B*45:01. Described as above.
Experiment [10] has as its target HLA-B*08:01. Described as above. To be noted: source organism: Hepatitis C virus (isolate H).
Setting [11] is: source organism: Triticum aestivum.
Where [12] appears, read: source organism: West Nile virus.
[13] abbreviates: source organism: human gammaherpesvirus 4.
[14] abbreviates: source organism: Vaccinia virus WR.
Where [15] appears, read: source organism: Mammarenavirus whitewaterense.
Setting [16] is: source organism: Human herpesvirus 4 strain B95-8.
Where [17] appears, read: source organism: Mammarenavirus tacaribeense.
Setting [18] is: source organism: Mycobacterium tuberculosis C.
[19] abbreviates: source organism: SARS coronavirus Tor2.
Where [20] appears, read: source organism: Influenza A virus (A/SW/MN/12883/00(H1N2)).
Setting [21] is: source organism: Mycobacterium tuberculosis H37Rv.
Setting [22] is: source organism: Campylobacter jejuni RM1221.
The mark [23] stands for this setting: source organism: Mammarenavirus lassaense.
Where [24] appears, read: source organism: Hepatitis C virus (isolate H).
[25] abbreviates: source organism: Mammarenavirus brazilense.
Setting [26] is: source organism: Dengue virus 1 Singapore/S275/1990.

The term Kd denotes a measure of binding affinity in units of concentration. As to QPFPPQQPY, the dissociation constant Kd with HLA-B*07:02 [1] (setting [11]) is not below 77500 nM; with HLA-B*51:01 (setting [11]), not below 77500 nM; in the experiment with HLA-B*54:01 (setting [11]), not below 78100 nM; with HLA-B*53:01 (setting [11]), not below 78200 nM; with HLA-B*35:01 (setting [11]) it was 304 nM.
Sequence PYIDAADQF returned a Kd with HLA-A*24:03 (source organism: Mycobacterium tuberculosis) of 91.2 nM.
For the sequence MEEPAPAGF, the figures for the Kd with HLA-B*18:01 [2] (setting [12]) and in the experiment with HLA-B*40:01 [3] (setting [12]) were 19.8 nM and 2570 nM, respectively.
Turning to VPRPRFSAL, the equilibrium dissociation constant (Kd) in the experiment with HLA-B*45:06 (setting [13]) was not below 20000 nM; in the experiment with HLA-B*83:01 (setting [13]) it was 106 nM; in the experiment with HLA-B*15:42 (setting [13]) it was not below 5000 nM.
Regarding TPNNLNKIQL, the equilibrium dissociation constant (Kd) in the experiment with HLA-B*07:02 [1] (setting [14]) was 64.9 nM; with HLA-B*51:01 (setting [14]), not below 69600 nM; with HLA-B*54:01 (setting [14]), 13500 nM; with HLA-B*53:01 (setting [14]) it was 2930 nM; in the experiment with HLA-B*35:01 (setting [14]), 4430 nM.
In the case of GPFEASWAI, the equilibrium dissociation constant (Kd) in the experiment with HLA-B*07:02 [1] (setting [15]) came to 411 nM; with HLA-B*51:01 (setting [15]), 1000 nM; with HLA-B*54:01 (setting [15]) it was 311 nM; in the experiment with HLA-B*53:01 (setting [15]) it was 254 nM; with HLA-B*35:01 (setting [15]), 801 nM.
With CSDAFYPFY, the Kd with HLA-B*45:06 (setting [16]), with HLA-B*83:01 (setting [16]) and with HLA-B*15:42 (setting [16]) was not below 5000 nM each time.
In the case of VPYCNYTRFW, the Kd with HLA-B*07:02 [1] (setting [17]) was 3530 nM; in the experiment with HLA-B*51:01 (setting [17]) it was 1020 nM; with HLA-B*54:01 (setting [17]), not below 22500 nM; in the experiment with HLA-B*53:01 (setting [17]), 15.9 nM; with HLA-B*35:01 (setting [17]) it was 3400 nM.
Consider MPEKRNVVV, for which the Kd in the experiment with HLA-B*07:02 [1] (setting [14]) was found to be 1.8 nM; in the experiment with HLA-B*51:01 (setting [14]) it was 127 nM; with HLA-B*54:01 (setting [14]), 33 nM; in the experiment with HLA-B*53:01 (setting [14]), 400 nM; in the experiment with HLA-B*35:01 (setting [14]) it was 412 nM.
With MPYNILDRII, the Kd was found to be 265 nM in the experiment with HLA-B*07:02 [1] (setting [14]); 124 nM in the experiment with HLA-B*51:01 (setting [14]); 8.4 nM with HLA-B*54:01 (setting [14]); 45.5 nM with HLA-B*53:01 (setting [14]); 1640 nM with HLA-B*35:01 (setting [14]).
For DPEKFNARM, the Kd with HLA-B*07:02 [1] (setting [14]) was not below 66700 nM; with HLA-B*51:01 (setting [14]), 17000 nM; with HLA-B*54:01 (setting [14]), not below 78100 nM; in the experiment with HLA-B*53:01 (setting [14]), 1300 nM; with HLA-B*35:01 (setting [14]), 948 nM.
As to LAMYHGQTY, the Kd with HLA-B*46:01 is not below 20000 nM.
For SVMAIFYLR, the Kd with HLA-B*45:06 (setting [18]), with HLA-B*83:01 (setting [18]) and with HLA-B*15:42 (setting [18]) was not below 5000 nM throughout.
Consider FPLKLRGTAV, for which the Kd came to 135 nM with HLA-B*07:02 [1] (setting [19]); 659 nM with HLA-B*51:01 (setting [19]); 1.06 nM with HLA-B*54:01 (setting [19]); 4480 nM with HLA-B*53:01 (setting [19]); 4530 nM with HLA-B*35:01 (setting [19]).
With NEVGARILT, the values for the Kd with HLA-B*44:02 [4] (setting [20]), with HLA-B*18:01 [2] (setting [20]) and in the experiment with HLA-B*40:01 [3] (setting [20]) were not below 20000 nM, 658 nM and not below 20000 nM, respectively.
Turning to GEDGCWYGM, the values for the Kd with HLA-B*44:02 [4] (source organism: Dengue virus) and with HLA-B*18:01 [2] (source organism: Dengue virus) were not below 20000 nM and 1260 nM, respectively.
Take EERKNFLEL: the Kd in the experiment with HLA-B*18:01 [2] (setting [12]) was 48.4 nM; with HLA-B*40:01 [3] (setting [12]) it was not below 20000 nM.
For KHIKPIVEF, the dissociation constant Kd with HLA-A*24:03 (source organism: Entamoeba histolytica) is 70.5 nM.
On to SPAAYVLPL, for which the dissociation constant (Kd) with HLA-B*45:06 (setting [21]) is not below 5000 nM; in the experiment with HLA-B*83:01 (setting [21]) it was 156 nM; with HLA-B*15:42 (setting [21]), not below 5000 nM.
On to KNDAVYIGY, for which the Kd in the experiment with HLA-B*44:02 [4] (setting [22]), with HLA-B*07:02 [5], in the experiment with HLA-A*11:01, with HLA-A*24:03 (setting [22]), with HLA-A*69:01 and with HLA-B*40:01 [3] (setting [22]) was not below 20000 nM each time. Besides, the equilibrium dissociation constant (Kd) with HLA-A*02:01 was not below 20000 nM; with HLA-A*03:01 it was not below 20000 nM; with HLA-A*01:01, 19200 nM; in the experiment with HLA-B*08:01 [6] it was not below 20000 nM; with HLA-B*58:01, not below 20000 nM; with HLA-B*15:01 it was not below 20000 nM. The Kd with HLA-A*26:01, in the experiment with HLA-B*27:05 and in the experiment with HLA-A*31:01 was not below 20000 nM in each case.
As to EELITDVEFL, the Kd in the experiment with HLA-B*44:02 [7] (setting [23]) was 5160 nM; in the experiment with HLA-B*18:01 [8] (setting [23]), 19000 nM; with HLA-B*40:01 [9] (setting [23]) it was 3120 nM; in the experiment with HLA-B*44:03 (setting [23]), 6370 nM; with HLA-B*40:02 (setting [23]), 9850 nM; in the experiment with HLA-B*45:01 (setting [23]), 17900 nM.
With HPALVFDIT, the Kd with HLA-B*51:01 (setting [24]) amounted to 7090 nM; in the experiment with HLA-B*08:01 [10], 974 nM; with HLA-B*54:01 (setting [24]), 0.285 nM; with HLA-B*53:01 (setting [24]), 650 nM; in the experiment with HLA-B*35:01 (setting [24]) it was 5.67 nM.
For the sequence RERVNINIV, the Kd is not below 35400 nM with HLA-B*44:02 [7] (setting [19]); not below 37800 nM in the experiment with HLA-B*18:01 [8] (setting [19]); 10700 nM in the experiment with HLA-B*40:01 [9] (setting [19]); not below 38200 nM in the experiment with HLA-B*44:03 (setting [19]); 26 nM with HLA-B*40:02 (setting [19]); 265 nM with HLA-B*45:01 (setting [19]).
For DELPFVAPV, the dissociation constant Kd with HLA-B*18:01 [2] (source organism: Burkholderia ambifaria AMMD) stood at 0.6 nM.
Consider HENKNATWCL, for which the Kd with HLA-B*44:02 [7] (setting [25]) came out at 4540 nM; with HLA-B*18:01 [8] (setting [25]), 16600 nM; with HLA-B*40:01 [9] (setting [25]), 915 nM; with HLA-B*44:03 (setting [25]), 15300 nM; with HLA-B*40:02 (setting [25]), 54.4 nM; with HLA-B*45:01 (setting [25]), 5060 nM.
As to SEHTGKEIV, the dissociation constant (Kd) with HLA-B*44:02 [4] (setting [26]) was not below 20000 nM; with HLA-B*18:01 [2] (setting [26]), 3090 nM.

These data come from the Immune Epitope Database (IEDB).
